Laboratory results as given in paper PMC10888616, “Pleiotropic Effects of PhaR Regulator in Bradyrhizobium diazoefficiens Microaerobic Metabolism”.

How the values were obtained:
[1] = target: recombinant untagged PhaR protein of Bradyrhizobium diazoefficiens (Bradyrhizobium diazoefficiens); assay: SEC; Superdex 75 10/300 GL, mIVT buffer at pH 8 (40 mM Tris-HCl, 150 mM KCl, 0.1 mM EDTA, 0.1 mM DTT), 200 uL of untagged PhaR at 5 to 30 uM, 0.5 mL/min; tetramer to monomers; the monomer peak increased at lower concentrations
[2] = target: T1, PhaR (Bradyrhizobium diazoefficiens USDA 110, UniProt Q89XT0 1-197); assay: EMSA; shift at 0.5 uM PhaR; mIVT buffer: 40 mM Tris-HCl pH 7.0, 150 mM KCl, 0.1 mM EDTA, 0.1 mM DTT; 10 uL, 2 ng DNA, 0-2 uM PhaR, 30 min room temperature; 6% native PAGE 0.5X TBE, SYBR Gold; conditions: protein: recombinant; tags: untagged (C-terminal intein-CBD removed, IMPACT); chain copies: 4; blunt
T1 sequence: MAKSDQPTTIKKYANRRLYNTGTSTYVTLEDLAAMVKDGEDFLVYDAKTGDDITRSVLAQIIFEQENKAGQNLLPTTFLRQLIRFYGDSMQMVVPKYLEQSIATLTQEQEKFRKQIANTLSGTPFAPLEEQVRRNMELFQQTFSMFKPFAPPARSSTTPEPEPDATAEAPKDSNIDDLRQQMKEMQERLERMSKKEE

[3] = target: T1, PhaR; assay: EMSA; mutation did not affect interaction at 1-2 uM PhaR; mIVT buffer: 40 mM Tris-HCl pH 7.0, 150 mM KCl, 0.1 mM EDTA, 0.1 mM DTT; 10 uL, 2 ng DNA, 0-2 uM PhaR, 30 min room temperature; 6% native PAGE 0.5X TBE, SYBR Gold; conditions: protein: recombinant; tags: untagged (C-terminal intein-CBD removed, IMPACT); chain copies: 4; blunt
[4] = target: T1, PhaR; assay: EMSA; mIVT buffer: 40 mM Tris-HCl pH 7.0, 150 mM KCl, 0.1 mM EDTA, 0.1 mM DTT; 10 uL, 2 ng DNA, 0-2 uM PhaR, 30 min room temperature; 6% native PAGE 0.5X TBE, SYBR Gold; conditions: protein: recombinant; tags: untagged (C-terminal intein-CBD removed, IMPACT); chain copies: 4; blunt

**Q.** How did the stoichiometry N [1] turn out when “recombinant untagged PhaR protein of Bradyrhizobium diazoefficiens (natural protein)” was run?
**A.** 4

B1: phaP1 67 bp wild type (5155_2) (dsDNA)
DNA 1: GATCTAGTTTTTGTGCGACGCACAAGATTCTTGACTTTTTTGTGCGTTGCACTAATTGTGGGCAGAG
DNA 2: CTCTGCCCACAATTAGTGCAACGCACAAAAAAGTCAAGAATCTTGTGCGTCGCACAAAAACTAGATC
**Q.** Does B1 bind [2]?
**A.** binds

B2: blr4358 oligo, long PhaR box mutated (blr4358_EMSA_2) (dsDNA)
DNA 1: CGCCGGATCAGCAATAAAATATAAATTAATATAAGAAGGTCTCCAA
DNA 2: TTGGAGACCTTCTTATATTAATTTATATTTTATTGCTGATCCGGCG
**Q.** Does B2 bind [3]?
**A.** binds

B3: blr4358 oligo wild type (blr4358_EMSA_1) (dsDNA)
DNA 1: CGCCGGATCAGCCCGCCAAGATCAAGGCCGCGAAGAAGGTCTCCAA
DNA 2: TTGGAGACCTTCTTCGCGGCCTTGATCTTGGCGGGCTGATCCGGCG
**Q.** Does B3 bind [4]?
**A.** binds
